Data reported in patent US20210087286A1 (Amgen, published 2021).
Where a chain is given by its changes, count along the chain named.

T1: human GIPR (human, UniProt P48546 22-466)
T1 sequence: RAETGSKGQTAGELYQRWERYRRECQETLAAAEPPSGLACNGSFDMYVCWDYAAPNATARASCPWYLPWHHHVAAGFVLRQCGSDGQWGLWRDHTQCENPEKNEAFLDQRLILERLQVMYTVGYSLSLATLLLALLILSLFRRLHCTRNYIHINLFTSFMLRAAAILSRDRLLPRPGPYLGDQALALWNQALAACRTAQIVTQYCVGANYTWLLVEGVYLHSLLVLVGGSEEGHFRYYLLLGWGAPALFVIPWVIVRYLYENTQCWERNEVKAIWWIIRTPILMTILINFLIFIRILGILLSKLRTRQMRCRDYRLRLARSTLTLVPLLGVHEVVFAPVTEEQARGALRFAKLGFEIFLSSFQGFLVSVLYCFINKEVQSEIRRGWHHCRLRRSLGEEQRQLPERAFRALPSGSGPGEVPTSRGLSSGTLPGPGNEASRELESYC

T2: huGIPR ECD (human, UniProt P48546 21-129, limits assumed)
T2 construct: Soluble analyte of the Biacore assay; also called human GIPR extracellular domain
T2 sequence: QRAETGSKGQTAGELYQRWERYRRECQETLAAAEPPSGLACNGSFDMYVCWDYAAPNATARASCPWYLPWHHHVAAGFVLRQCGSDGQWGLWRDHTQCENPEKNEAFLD

B1: 2G10.316 (antibody, human IgG1, kappa, N297G, V domains shown)
VH: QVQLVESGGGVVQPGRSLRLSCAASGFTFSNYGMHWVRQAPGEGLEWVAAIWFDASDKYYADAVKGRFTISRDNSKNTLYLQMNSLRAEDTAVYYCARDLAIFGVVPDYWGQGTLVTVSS
VL: EIVMTQSPATLSVSPGERATLSCRASQSVFRHLAWYQQKPGQAPRLLIYEAATRATGIPARFSGSGSGTEFTLTISSLQSEDFAVYYCQQYQNWPLTFGGGTKVEIKR
notes: also called SS-26193
B2: 2G10.304 (antibody, human IgG1, kappa, N297G, V domains shown)
VH: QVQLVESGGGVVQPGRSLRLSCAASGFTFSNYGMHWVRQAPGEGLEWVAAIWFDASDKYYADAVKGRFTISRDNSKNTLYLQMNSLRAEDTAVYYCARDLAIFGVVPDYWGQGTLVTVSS
VL: B1 VL with F30N
notes: also called SS-26181
B3: 2G10.318 (antibody, human IgG1, kappa, N297G, V domains shown)
VH: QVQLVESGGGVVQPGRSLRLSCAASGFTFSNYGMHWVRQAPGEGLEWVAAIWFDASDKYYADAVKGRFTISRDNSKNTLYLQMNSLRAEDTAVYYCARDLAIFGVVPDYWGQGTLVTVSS
VL: B1 VL with F30L, R31S, Q92N
B4: 2G10.305 (antibody, human IgG1, kappa, N297G, V domains shown)
VH: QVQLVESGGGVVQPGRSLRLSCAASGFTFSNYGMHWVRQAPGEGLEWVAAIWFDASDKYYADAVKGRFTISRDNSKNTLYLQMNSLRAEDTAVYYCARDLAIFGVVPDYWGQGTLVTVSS
VL: B1 VL with F30D, R31V, H32N, E50N
notes: also called SS-26182
B5: 2G10.308 (antibody, human IgG1, kappa, N297G, V domains shown)
VH: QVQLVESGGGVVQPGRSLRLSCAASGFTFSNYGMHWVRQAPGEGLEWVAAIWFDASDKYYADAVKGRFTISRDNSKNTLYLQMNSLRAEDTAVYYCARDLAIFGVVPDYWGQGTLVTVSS
VL: B1 VL with R31S, N93Q
notes: also called SS-26185
B6: 2G10.342 (antibody, human IgG1, kappa, N297G, V domains shown)
VH: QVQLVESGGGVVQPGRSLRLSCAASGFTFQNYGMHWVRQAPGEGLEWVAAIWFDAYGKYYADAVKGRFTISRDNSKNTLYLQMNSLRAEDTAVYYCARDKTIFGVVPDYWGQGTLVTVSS
VL: B1 VL with F30E, N93Q
B7: 2G10.345 (antibody, human IgG1, kappa, N297G, V domains shown)
VH: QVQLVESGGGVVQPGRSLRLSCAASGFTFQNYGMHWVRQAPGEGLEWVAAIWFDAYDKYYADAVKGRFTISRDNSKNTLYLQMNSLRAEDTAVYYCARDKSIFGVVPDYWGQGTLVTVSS
VL: B1 VL with F30N, Q92N
B8: 2G10.339 (antibody, human IgG1, kappa, N297G, V domains shown)
VH: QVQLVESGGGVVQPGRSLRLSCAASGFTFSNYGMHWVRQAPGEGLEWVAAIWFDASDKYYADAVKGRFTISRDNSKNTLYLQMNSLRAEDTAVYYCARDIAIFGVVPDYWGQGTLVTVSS
VL: B1 VL with R31Q, H32N, E50Q, Q92N, N93Q
B9: 2G10.331 (antibody, human IgG1, kappa, N297G, V domains shown)
VH: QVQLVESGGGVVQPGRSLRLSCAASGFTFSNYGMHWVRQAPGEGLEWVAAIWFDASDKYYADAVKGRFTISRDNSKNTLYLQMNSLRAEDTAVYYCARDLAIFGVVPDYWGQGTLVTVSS
VL: B1 VL with F30D, R31L
notes: also called SS-26208
B10: 2G10.319 (antibody, human IgG1, kappa, N297G, V domains shown)
VH: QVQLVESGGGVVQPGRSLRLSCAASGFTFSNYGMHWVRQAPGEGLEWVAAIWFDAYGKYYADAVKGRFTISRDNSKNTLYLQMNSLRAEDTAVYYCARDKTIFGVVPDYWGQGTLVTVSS
VL: B1 VL
B11: 2G10.325 (antibody, human IgG1, kappa, N297G, V domains shown)
VH: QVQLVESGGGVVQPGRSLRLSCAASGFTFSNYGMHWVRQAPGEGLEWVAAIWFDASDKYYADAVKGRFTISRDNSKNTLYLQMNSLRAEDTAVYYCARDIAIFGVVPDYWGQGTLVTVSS
VL: B1 VL with R31E, Q92N, N93Q
B12: 2G10.336 (antibody, human IgG1, kappa, N297G, V domains shown)
VH: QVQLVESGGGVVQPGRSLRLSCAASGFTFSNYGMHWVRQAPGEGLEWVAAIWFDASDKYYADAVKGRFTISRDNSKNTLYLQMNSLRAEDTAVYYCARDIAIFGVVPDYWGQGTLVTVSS
VL: B1 VL with F30Q, R31S
notes: also called SS-26213
B13: 2G10.335 (antibody, human IgG1, kappa, N297G, V domains shown)
VH: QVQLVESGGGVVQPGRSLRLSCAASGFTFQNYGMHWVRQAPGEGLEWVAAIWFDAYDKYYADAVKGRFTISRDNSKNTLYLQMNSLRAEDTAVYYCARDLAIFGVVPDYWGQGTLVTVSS
VL: B1 VL with F30T, R31S, Q92N, N93Q
notes: also called SS-26212
B14: 2G10.303 (antibody, human IgG1, kappa, N297G, V domains shown)
VH: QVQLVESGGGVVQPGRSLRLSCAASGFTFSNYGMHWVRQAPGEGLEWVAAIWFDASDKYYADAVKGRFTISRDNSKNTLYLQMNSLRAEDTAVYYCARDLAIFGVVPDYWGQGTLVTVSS
VL: B1 VL with F30D
notes: also called SS-26180
B15: 2G10.313 (antibody, human IgG1, kappa, N297G, V domains shown)
VH: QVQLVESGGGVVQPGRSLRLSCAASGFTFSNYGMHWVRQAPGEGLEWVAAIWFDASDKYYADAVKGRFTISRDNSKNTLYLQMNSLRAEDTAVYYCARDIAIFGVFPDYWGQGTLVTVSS
VL: B1 VL with F30D, Q92N, N93Q
notes: also called SS-26190
B16: 2G10.334 (antibody, human IgG1, kappa, N297G, V domains shown)
VH: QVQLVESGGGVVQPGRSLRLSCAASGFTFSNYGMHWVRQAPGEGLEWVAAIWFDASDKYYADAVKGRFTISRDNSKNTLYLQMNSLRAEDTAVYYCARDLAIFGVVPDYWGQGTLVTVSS
VL: B1 VL with F30N, R31L, H32N, E50Q, Q92N, N93Q
notes: also called SS-26211
B17: 2G10.307 (antibody, human IgG1, kappa, N297G, V domains shown)
VH: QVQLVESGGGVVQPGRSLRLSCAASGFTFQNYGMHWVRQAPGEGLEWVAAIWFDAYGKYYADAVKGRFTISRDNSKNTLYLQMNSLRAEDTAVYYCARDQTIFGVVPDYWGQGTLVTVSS
VL: B1 VL with F30D, Q92N, N93Q
notes: also called SS-26184
B18: 2G10.343 (antibody, human IgG1, kappa, N297G, V domains shown)
VH: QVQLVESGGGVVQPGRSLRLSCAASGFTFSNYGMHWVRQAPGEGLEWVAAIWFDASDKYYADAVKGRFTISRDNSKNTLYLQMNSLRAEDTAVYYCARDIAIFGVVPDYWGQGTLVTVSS
VL: B1 VL with F30L, R31E, Q92N
B19: 2G10.317 (antibody, human IgG1, kappa, N297G, V domains shown)
VH: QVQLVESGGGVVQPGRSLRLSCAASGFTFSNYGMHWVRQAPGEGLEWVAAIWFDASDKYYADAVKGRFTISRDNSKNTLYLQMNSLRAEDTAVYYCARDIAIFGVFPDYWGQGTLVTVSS
VL: B1 VL with F30N, N93Q
notes: also called SS-26194
B20: 2G10.337 (antibody, human IgG1, kappa, N297G, V domains shown)
VH: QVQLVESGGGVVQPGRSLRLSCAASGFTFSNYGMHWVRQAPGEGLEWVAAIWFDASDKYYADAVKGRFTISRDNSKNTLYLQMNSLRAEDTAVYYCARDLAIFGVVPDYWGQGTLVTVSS
VL: B1 VL with F30D, R31V, H32N, Q92N, N93Q
notes: also called SS-26214
B21: 2G10.332 (antibody, human IgG1, kappa, N297G, V domains shown)
VH: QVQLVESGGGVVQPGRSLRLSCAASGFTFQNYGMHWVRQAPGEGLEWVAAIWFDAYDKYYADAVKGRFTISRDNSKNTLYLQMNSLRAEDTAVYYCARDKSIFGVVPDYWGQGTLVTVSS
VL: B1 VL with F30L, R31S, Q92N
notes: also called SS-26209
B22: 2G10.333 (antibody, human IgG1, kappa, N297G, V domains shown)
VH: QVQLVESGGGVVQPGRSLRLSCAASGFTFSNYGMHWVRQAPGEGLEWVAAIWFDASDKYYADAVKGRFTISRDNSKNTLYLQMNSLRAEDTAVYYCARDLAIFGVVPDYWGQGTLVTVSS
VL: B1 VL with F30S, N93H
notes: also called SS-26210
B23: 2G10.338 (antibody, human IgG1, kappa, N297G, V domains shown)
VH: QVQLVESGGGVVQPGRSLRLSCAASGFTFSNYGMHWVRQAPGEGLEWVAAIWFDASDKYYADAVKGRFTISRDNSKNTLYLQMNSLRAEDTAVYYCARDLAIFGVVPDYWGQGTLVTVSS
VL: B1 VL with F30H, R31H, Q92N, N93Q
B24: 2G10.330 (antibody, human IgG1, kappa, N297G, V domains shown)
VH: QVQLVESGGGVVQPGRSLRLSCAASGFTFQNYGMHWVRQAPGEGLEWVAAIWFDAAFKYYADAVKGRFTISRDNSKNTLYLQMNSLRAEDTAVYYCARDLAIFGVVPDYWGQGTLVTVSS
VL: B1 VL with F30D, R31Q, E50Q
notes: also called SS-26207
B25: 2G10.322 (antibody, human IgG1, kappa, N297G, V domains shown)
VH: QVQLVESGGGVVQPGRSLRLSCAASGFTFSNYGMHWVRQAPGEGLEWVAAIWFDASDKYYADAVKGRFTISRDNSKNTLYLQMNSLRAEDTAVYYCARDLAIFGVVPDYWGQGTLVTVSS
VL: B1 VL with F30M, R31S
B26: 2G10.306 (antibody, human IgG1, kappa, N297G, V domains shown)
VH: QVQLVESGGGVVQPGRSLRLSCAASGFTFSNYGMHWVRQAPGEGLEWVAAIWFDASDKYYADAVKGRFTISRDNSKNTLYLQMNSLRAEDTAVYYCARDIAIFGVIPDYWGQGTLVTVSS
VL: B1 VL with F30L, R31T
notes: also called SS-26183
B27: 2G10.302 (antibody, human IgG1, kappa, N297G, V domains shown)
VH: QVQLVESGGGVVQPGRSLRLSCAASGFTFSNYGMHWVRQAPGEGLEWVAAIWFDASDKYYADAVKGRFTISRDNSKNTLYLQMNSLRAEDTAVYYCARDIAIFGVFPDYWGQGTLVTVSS
VL: B1 VL with R31E, Q92N
notes: also called SS-26179
B28: 2G10.314 (antibody, human IgG1, kappa, N297G, V domains shown)
VH: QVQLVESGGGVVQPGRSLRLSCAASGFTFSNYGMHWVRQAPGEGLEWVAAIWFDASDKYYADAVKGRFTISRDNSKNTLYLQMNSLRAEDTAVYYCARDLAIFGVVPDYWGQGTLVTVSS
VL: B1 VL with F30H, R31S, Q92N
notes: also called SS-26191
B29: 2G10.315 (antibody, human IgG1, kappa, N297G, V domains shown)
VH: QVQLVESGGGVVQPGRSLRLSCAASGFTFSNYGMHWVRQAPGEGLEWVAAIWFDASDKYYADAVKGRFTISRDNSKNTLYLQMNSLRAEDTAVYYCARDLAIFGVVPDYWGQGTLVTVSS
VL: B1 VL with F30L, R31T
notes: also called SS-26192
B30: 2G10.340 (antibody, human IgG1, kappa, N297G, V domains shown)
VH: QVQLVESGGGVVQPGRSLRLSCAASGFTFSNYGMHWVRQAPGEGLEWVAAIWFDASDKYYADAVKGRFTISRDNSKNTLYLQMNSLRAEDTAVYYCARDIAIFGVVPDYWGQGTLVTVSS
VL: B1 VL with F30H, R31T, H32N, E50N
B31: 2G10.309 (antibody, human IgG1, kappa, N297G, V domains shown)
VH: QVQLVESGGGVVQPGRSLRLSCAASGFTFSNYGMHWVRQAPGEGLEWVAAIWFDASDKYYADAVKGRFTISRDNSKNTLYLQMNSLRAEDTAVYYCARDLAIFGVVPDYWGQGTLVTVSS
VL: B1 VL with F30E
notes: also called SS-26186
B32: 2G10.327 (antibody, human IgG1, kappa, N297G, V domains shown)
VH: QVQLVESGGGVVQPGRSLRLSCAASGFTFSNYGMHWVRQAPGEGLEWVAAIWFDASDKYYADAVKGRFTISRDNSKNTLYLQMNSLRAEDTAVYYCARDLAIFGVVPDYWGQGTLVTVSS
VL: B1 VL with F30H, R31S, Q92N, N93Q
B33: 2G10.301 (antibody, human IgG1, kappa, N297G, V domains shown)
VH: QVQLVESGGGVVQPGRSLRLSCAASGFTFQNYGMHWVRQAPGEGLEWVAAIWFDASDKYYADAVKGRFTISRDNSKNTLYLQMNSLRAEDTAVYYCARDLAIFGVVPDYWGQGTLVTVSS
VL: B1 VL with R31S
notes: also called SS-26178
B34: 2G10.326 (antibody, human IgG1, kappa, N297G, V domains shown)
VH: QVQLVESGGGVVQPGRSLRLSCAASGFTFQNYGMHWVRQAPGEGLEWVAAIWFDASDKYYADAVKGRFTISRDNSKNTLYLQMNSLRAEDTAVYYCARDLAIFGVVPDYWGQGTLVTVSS
VL: B1 VL with F30L, R31S, N93Q
B35: 2G10.344 (antibody, human IgG1, kappa, N297G, V domains shown)
VH: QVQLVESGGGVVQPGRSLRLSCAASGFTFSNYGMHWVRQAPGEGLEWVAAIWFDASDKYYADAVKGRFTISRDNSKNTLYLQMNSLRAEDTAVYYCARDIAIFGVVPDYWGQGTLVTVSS
VL: B1 VL with F30S, R31S, N93Q
B36: 2G10.329 (antibody, human IgG1, kappa, N297G, V domains shown)
VH: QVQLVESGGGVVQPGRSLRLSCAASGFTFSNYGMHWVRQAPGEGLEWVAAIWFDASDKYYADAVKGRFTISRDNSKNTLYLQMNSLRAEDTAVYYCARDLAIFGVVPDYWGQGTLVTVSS
VL: B1 VL with F30E, R31Q, Q92N
notes: also called SS-26206
B37: 2G10.323 (antibody, human IgG1, kappa, N297G, V domains shown)
VH: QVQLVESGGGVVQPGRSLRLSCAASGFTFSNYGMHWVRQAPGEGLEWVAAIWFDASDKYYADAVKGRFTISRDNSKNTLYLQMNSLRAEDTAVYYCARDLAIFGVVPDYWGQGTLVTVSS
VL: B1 VL with F30H
B38: 2G10.324 (antibody, human IgG1, kappa, N297G, V domains shown)
VH: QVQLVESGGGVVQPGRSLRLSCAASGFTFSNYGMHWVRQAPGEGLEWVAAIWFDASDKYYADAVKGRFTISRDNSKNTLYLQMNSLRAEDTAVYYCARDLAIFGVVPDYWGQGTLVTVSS
VL: B1 VL with F30L, R31S
B39: 2G10.312 (antibody, human IgG1, kappa, N297G, V domains shown)
VH: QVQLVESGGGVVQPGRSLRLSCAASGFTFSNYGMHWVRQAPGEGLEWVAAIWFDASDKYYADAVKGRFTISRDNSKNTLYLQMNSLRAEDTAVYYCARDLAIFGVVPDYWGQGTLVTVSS
VL: B1 VL with R31E, Q92N
notes: also called SS-26189
B40: 2G10.328 (antibody, human IgG1, kappa, N297G, V domains shown)
VH: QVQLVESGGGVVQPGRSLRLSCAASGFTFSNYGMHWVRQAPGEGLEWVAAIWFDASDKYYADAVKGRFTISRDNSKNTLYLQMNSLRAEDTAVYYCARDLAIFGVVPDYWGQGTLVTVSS
VL: B1 VL with F30S, R31E
B41: 2G10.321 (antibody, human IgG1, kappa, N297G, V domains shown)
VH: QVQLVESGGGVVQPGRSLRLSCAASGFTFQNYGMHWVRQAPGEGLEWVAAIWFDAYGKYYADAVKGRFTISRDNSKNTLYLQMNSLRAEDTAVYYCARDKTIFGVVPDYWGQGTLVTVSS
VL: B1 VL with F30N, Q92N, N93Q
B42: 2G10.341 (antibody, human IgG1, kappa, N297G, V domains shown)
VH: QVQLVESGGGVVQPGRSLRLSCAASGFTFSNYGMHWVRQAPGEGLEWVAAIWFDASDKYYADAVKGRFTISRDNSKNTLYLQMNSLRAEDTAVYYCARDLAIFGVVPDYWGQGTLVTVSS
VL: B1 VL with F30D, R31V, Q92N, N93Q
B43: 2G10.311 (antibody, human IgG1, kappa, N297G, V domains shown)
VH: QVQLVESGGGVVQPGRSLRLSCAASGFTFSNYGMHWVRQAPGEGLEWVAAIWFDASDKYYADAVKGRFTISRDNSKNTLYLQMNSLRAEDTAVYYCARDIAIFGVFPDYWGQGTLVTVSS
VL: B1 VL with F30N, R31V, E50Q, Q92N, N93Q
notes: also called SS-26188

Target: T1, human GIPR
Test: cell-based or functional assay

Binder | cAMP IC50 [nM]
B1 | 14.7
B2 | 16.9
B3 | 20.9
B4 | 27.2
B5 | 18.3
B6 | 11.6
B7 | 18.9
B8 | 22.6
B9 | 19.7
B10 | 7.9
B11 | 26.2
B12 | 29.6
B13 | 25.9
B14 | 23.1
B15 | 20.7
B16 | 13.7
B17 | 17.4
B18 | 37.6
B19 | 13.7
B20 | 32.5
B21 | 12.9
B22 | 12.1

Binder | cAMP IC50 [nM]
B23 | 23.4
B24 | 18.6
B25 | 17.9
B26 | 20.7
B27 | 19.9
B28 | 17.5
B29 | 22
B30 | 25.9
B31 | 29.5
B32 | 19.3
B33 | 17.6
B34 | 26.6
B35 | 21.9
B36 | 26.8
B37 | 17.4
B38 | 14.1
B39 | 23.2
B40 | 24.4
B41 | 7.46
B42 | 24.7
B43 | 14.9

Target: T2, huGIPR ECD
Test: SPR (Biacore T200), mAb captured via goat anti-huFc, 200 nM huGIPR ECD analyte
Procedure: Immobilization of Goat-anti-huFc antibody to a S-CM5 sensor chip surface was performed according to manufacturer's instructions. The Biacore instrument running buffer is 0.005% P20/PBS 1×, pH7.4, no calcium chloride, no magnesium chloride. Briefly, carboxyl groups on the sensor chip surfaces were activated by injecting 60 μL of a mixture containing 0.2 M N-ethyl-N′-(dimethylaminopropyl) carbodiimide (EDC) and 0.05 M N-hydroxysuccinimide (NHS). Goat-anti-huFc antibody was diluted in 10 mM sodium acetate, pH 4.0 at 20 μg/ml and injected over the activated chip surface at 30 uL/min for 6 minutes. Excess reactive groups on the surfaces were deactivated by injecting 60 μL of 1 M ethanolamine. Final immobilized level was ˜8000 resonance units (RU).
Binding assays were carried out on the immobilized goat anti-huFc antibody surface by Biacore T200. The experiment was performed at 25° C. The instrument running buffer was 0.005% P20/PBS. The goat anti-huFc capture antibody was covalently attached to the sensor chip surface via standard amine coupling to flow cells channel 1-4. The anti-huGIPR antibodies were diluted in sample buffer (0.1 mg/ml BSA, 0.005% P20, PBS) to ˜10 nM then captured to flow cells channel 2, 3, 4. Flow cell channel 1 was as a blank reference surface without injection of anti-huGIPR antibody. The captured antibody response range was ˜250 RU. Then 200 nM huGIPR ECD was injected over the goat anti-huFc antibody captured anti-huGIPR antibody surfaces at flow rate 50 ul/min for 3 minutes. After a 10 minutes dissociation, each surface was regenerated by injecting 10 mM Glycine, pH 1.5 for 30 seconds twice.

Binder | koff [s⁻¹]
B1 | < 5e-05
B2 | < 5e-05
B3 | < 5e-05
B4 | < 5e-05
B5 | < 5e-05
B6 | < 5e-05
B7 | 8e-05
B8 | 7e-05
B9 | 5e-05
B10 | 6e-05
B11 | < 5e-05
B12 | 0.0002
B13 | 6e-05
B14 | 7e-05
B15 | < 5e-05
B16 | 6e-05
B17 | 6e-05
B18 | 6e-05
B19 | < 5e-05
B20 | < 5e-05
B21 | 6e-05
B22 | < 5e-05

Binder | koff [s⁻¹]
B23 | 8e-05
B24 | < 5e-05
B25 | 6e-05
B26 | < 5e-05
B27 | < 5e-05
B28 | 6e-05
B29 | < 5e-05
B30 | 6e-05
B31 | < 5e-05
B32 | < 5e-05
B33 | 7e-05
B34 | 6e-05
B35 | 6e-05
B36 | 6e-05
B37 | < 5e-05
B38 | < 5e-05
B39 | < 5e-05
B40 | 7e-05
B41 | < 5e-05
B42 | 7e-05
B43 | 6e-05
